# Source: PMC11519604, “TOX2 nuclear-cytosol translocation is linked to leukemogenesis of acute T-cell leukemia by repressing TIM3 transcription” (Cell Death and Differentiation, 2024)
# B1: TOX-Flag (full-length TOX) (natural protein, UniProt O94900 1-526, looked up)
# chain: MDVRFYPPPAQPAAAPDAPCLGPSPCLDPYYCNKFDGENMYMSMTEPSQDYVPASQSYPGPSLESEDFNIPPITPPSLPDHSLVHLNEVESGYHSLCHPMNHNGLLPFHPQNMDLPEITVSNMLGQDGTLLSNSISVMPDIRNPEGTQYSSHPQMAAMRPRGQPADIRQQPGMMPHGQLTTINQSQLSAQLGLNMGGSNVPHNSPSPPGSKSATPSPSSSVHEDEGDDTSKINGGEKRPASDMGKKPKTPKKKKKKDPNEPQKPVSAYALFFRDTQAAIKGQNPNATFGEVSKIVASMWDGLGEEQKQVYKKKTEAAKKEYLKQLAAYRASLVSKSYSEPVDVKTSQPPQLINSKPSVFHGPSQAHSALYLSSHYHQQPGMNPHLTAMHPSLPRNIAPKPNNQMPVTVSIANMAVSPPPPLQISPPLHQHLNMQQHQPLTMQQPLGNQLPMQVQSALHSPTMQQGFTLQPDYQTIINPTSTAAQVVTQAMEYVRSGCRNPPPQPVDWNNDYCSSGGMQRDKALYLT
# notes: TOX, full length (526 residues by the printed limits of TOX(C) 257-526), in pCDH vector; Both are written as this one molecule; source: HEK293T, transfected, in lysate; not shown: Flag, C-terminal, kept
# Target: the molecule itself
# Assay: not stated; HEK293T cells with forced expression or knockdown of TOX and TOX2; bands told by apparent size (Supplementary Fig. 3B)
protein,measurement,value
B1,stoichiometry N,2
